The source of these data is CN116041515A (NANJING IASO BIOTHERAPEUTICS TECH CO LTD, dated 2023).

What is called Kd is a measure of binding affinity in units of concentration. What is called koff is the first-order rate constant of dissociation. What is called kon is the rate constant with which the complex forms.

For assay [1], the target named is T1, Recombinant biotinylated Human BAFF-R Protein, Kactus BAF-HM40RB (human, UniProt Q96RJ3 1-78, biotinylated).
T1 construct: Bought; also called Kactus BAFF-R-his-Bio; Kactus BAFFR-his bio; not shown: his tag and biotin label
T1 sequence (looked up): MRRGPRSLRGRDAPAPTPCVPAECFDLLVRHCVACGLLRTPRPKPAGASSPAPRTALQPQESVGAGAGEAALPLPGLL
Briefly: BLI, IgG on the sensor, antigen 100 to 6.25 nM, 1:1 model.

In assay [2] the target is T2, human-IL10-his-Bio, Kactus IL1-HM410B (human, UniProt P22301 19-178, biotinylated).
T2 construct: Unrelated control antigen; also called Kactus-IL10-Bio-his; not shown: his tag and biotin label
T2 sequence (P22301 19-178): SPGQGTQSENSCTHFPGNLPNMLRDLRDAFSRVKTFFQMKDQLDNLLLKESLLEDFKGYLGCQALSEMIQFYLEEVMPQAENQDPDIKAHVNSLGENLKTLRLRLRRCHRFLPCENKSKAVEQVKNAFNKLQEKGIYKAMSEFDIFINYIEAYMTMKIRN
Briefly: ELISA with purified IgG-form antibody. For orientation: An ELISA detects its analyte on a solid surface through an enzyme-linked reagent.

The target in assay [3] is T3, Streptavidin, Pierce 21125 (UniProt P22629 37-163, limits assumed).
T3 construct: Control protein coated on the plate; also called SA; Strepavidin
T3 sequence (P22629 37-163 limits assumed): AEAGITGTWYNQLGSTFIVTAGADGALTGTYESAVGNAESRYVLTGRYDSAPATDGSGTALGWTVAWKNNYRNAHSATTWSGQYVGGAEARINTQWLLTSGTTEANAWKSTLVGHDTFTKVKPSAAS
Briefly: ELISA with purified IgG-form antibody.

For assay [4], the target named is T4, Biotinylated Human CD27 Ligand, HIS, Avitag, ACRObiosystem CDL-H82Q9 (human, UniProt P32970 39-193, limits assumed, biotinylated).
T4 construct: Unrelated control antigen; also called ACRO-CD70-his; Acro-CD70-his; not shown: HIS tag and Avitag
T4 sequence (looked up): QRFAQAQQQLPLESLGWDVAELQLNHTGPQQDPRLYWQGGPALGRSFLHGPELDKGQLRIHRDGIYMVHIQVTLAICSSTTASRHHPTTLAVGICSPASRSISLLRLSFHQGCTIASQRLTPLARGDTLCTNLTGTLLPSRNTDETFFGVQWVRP
Description: phage ELISA.

The target in assay [5] is T5, Recombinant biotinylated Human CD19 Protein, Kactus CD2-HE121 (human, UniProt P15391 20-291, biotinylated).
T5 construct: Unrelated control antigen; also called Kactus-CD19-Fc; not shown: Fc by the short name
T5 sequence (looked up): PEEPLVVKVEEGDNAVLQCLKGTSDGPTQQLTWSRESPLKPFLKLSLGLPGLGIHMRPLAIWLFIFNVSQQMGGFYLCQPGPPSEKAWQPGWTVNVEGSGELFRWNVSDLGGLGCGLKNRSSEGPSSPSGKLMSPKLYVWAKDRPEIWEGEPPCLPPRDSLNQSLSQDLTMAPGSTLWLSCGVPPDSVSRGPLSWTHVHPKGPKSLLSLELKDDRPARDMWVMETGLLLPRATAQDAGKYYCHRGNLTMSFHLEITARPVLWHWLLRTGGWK
Briefly: phage ELISA.

Assay [6] deals with T3, Streptavidin, Pierce 21125. Description: phage ELISA.

B1: Clone 10 IgG (Fc fusion)
chain: QSALTQPASVSGSPGQSITISCTGTSSDVGGYNYVSWYQQHPGKAPKLMIYEVSNRPSGVSNRFSGSKSGNTASLTISGLQAEDEADYYCSSYTSSSTYVFGTGTKVTVLGSRGGGGSGGGGSGGGGSLEQITLKESGPTLVKPTQTLTLTCTFSGFSLSTSGVGVGWIRQPPGKALEWLALIYWDDDKRYSPSLKSRLTITKDTSKNQVVLTMTNMDPVDTATYYCARYAGQYSGMWPWDYWGQGTLVTVSS
notes: also called anti-BAFF-R IgG; not shown: human IgG4 Fc
As to B1, in assay [1], the Kd was determined as 0.762 nM, the koff stood at 8.72e-05 s⁻¹ and the kon was determined as 114000 M⁻¹ s⁻¹. Further, the binding result in assay [2] is listed as “no binding”. Moreover, the binding result in assay [3] is recorded as “no binding”.

B2: Clone 10 (phage-displayed scFv monoclonal) (scFv)
scFv: QSALTQPASVSGSPGQSITISCTGTSSDVGGYNYVSWYQQHPGKAPKLMIYEVSNRPSGVSNRFSGSKSGNTASLTISGLQAEDEADYYCSSYTSSSTYVFGTGTKVTVLGSRGGGGSGGGGSGGGGSLEQITLKESGPTLVKPTQTLTLTCTFSGFSLSTSGVGVGWIRQPPGKALEWLALIYWDDDKRYSPSLKSRLTITKDTSKNQVVLTMTNMDPVDTATYYCARYAGQYSGMWPWDYWGQGTLVTVSS
notes: the phage coat protein fusion is not described; also called #10号克隆
In the case of B2, the binding result in assay [4], in assay [5] and in assay [6] was “no binding” in each case.
